± gives the standard deviation of the averaged measurements.
tested on: ATP; experiment: switch fluorescence ratio, 500 uM ATP over buffer (Cy3 cluster intensity, sum of 5 cycles each) (fold (ratio)); higher = stronger signal-on switching upon ATP binding; sequences stand for … in TCGTCGGCAGCGTCAGATGTGTATAAGAGACAGTTTTTTTTTTTTTTTTTTTTTTTTT…TC; settings: aptamer strand: ATP DNA aptamer (quencher-CACCTGGGGGAGTATTGCGGAGGAAGG + anchor), 100 nM annealed; ATP concentration: 500 uM
In short: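 For every switch-domain sequence, the fluorescence ratio is the mean of per-cluster values, each being summed target-cycle Cy3 intensity over summed buffer-cycle Cy3 intensity. Clusters outside 100-1000 RFU were excluded. On a modified Illumina MiSeq flow-cell, the Cy3-labelled switching-strand clusters were annealed to 100 nM quencher-labelled ATP aptamer, imaged in selection buffer and then after 15 min with 500 uM ATP at 22 °C. Five such cycles were run, with NaOH stripping and re-annealing between them.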
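Note: ATP exposure 15 min at 22 °C before imaging.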

| Sequence | switch fluorescence ratio |
| --- | --- |
| GGTTACTGAG | 0.98 ± 0.018 |
| GAGGCTAGGG | 1.05 ± 0.031 |
| ATATGGGCTT | 0.986 ± 0.014 |
| ACGAGACGAC | 1.06 ± 0.023 |
| TATTTGAATC | 1.15 ± 0.24 |
| CATCGGCCGC | 1.0223 ± 0.00032 |
| TAACTTACAT | 1.19 ± 0.018 |
| GGGAATCATG | 0.971 ± 0.044 |
| AAATATTTCC | 1.09 ± 0.06 |
| AGAGTTTCTT | 0.981 ± 0.038 |
| GTTCTGTTGG | 0.995 ± 0.023 |
| TAGGTTTGCA | 1.02 ± 0.039 |
| TTAATAGTCA | 1 ± 0.014 |
| AAGAAGTTGC | 0.9861 ± 0.0034 |
| TAATTTGTCG | 0.982 ± 0.023 |
| GTTGTGATTT | 0.953 ± 0.032 |
| ACCTATCTTG | 1.03 ± 0.016 |
| TGGTCGCCGT | 0.978 ± 0.14 |
| CAGGAATAGC | 1.25 ± 0.044 |
| GGGACCTGCT | 0.951 ± 0.02 |
| CTATTTACGA | 1.05 ± 0.015 |
| AAAGGTGGCA | 1 ± 0.017 |
| ATCATGGTTG | 1.002 ± 0.0063 |

| Sequence | switch fluorescence ratio |
| --- | --- |
| CCCTTGGTTA | 1.03 ± 0.032 |
| TTTCGAGGAA | 1.03 ± 0.019 |
| TTTTTCCCGC | 1.07 ± 0.053 |
| GTTTTAGAGC | 1.05 ± 0.025 |
| TTTTATGTT | 0.978 ± 0.018 |
| TGATGGTGC | 1.05 ± 0.066 |
| TCAGTTGTTG | 1 ± 0.045 |
| TAAGTGATG | 1 ± 0.034 |
| ACATAAGTG | 1.02 ± 0.019 |
| ATGGGGTCTG | 1.05 ± 0.095 |
| AGAGGCTGTG | 1.01 ± 0.038 |
| CTCGCTAGGA | 1.05 ± 0.019 |
| TTAGGGCTTA | 0.995 ± 0.013 |
| TGGATGAGCT | 0.9968 ± 0.0088 |
| TTATTTTCAC | 1.04 ± 0.036 |
| TTTGACGACT | 1.01 ± 0.025 |
| TTGGGAAATG | 0.985 ± 0.042 |
| TGGGCCAGA | 1.01 ± 0.024 |
| CAAGTCCATT | 1.01 ± 0.034 |
| ACTTTAATGA | 1.07 ± 0.018 |
| GGTCTAGATA | 0.99 ± 0.026 |
| CTGAAGGGAC | 1.15 ± 0.036 |
| TTGATCCAGT | 0.997 ± 0.031 |

| Sequence | switch fluorescence ratio |
| --- | --- |
| TAGGTCTGTG | 0.987 ± 0.014 |
| CATTGAAAGA | 1.01 ± 0.038 |
| TTTTTATATG | 0.999 ± 0.02 |
| TTAGGTACCG | 1.012 ± 0.0016 |
| AGAGGTCCGA | 0.991 ± 0.037 |
| GAGAAGGGAG | 0.9895 ± 0.0055 |
| TGAGCTATTG | 0.997 ± 0.015 |
| TCGTAAAGAG | 1.022 ± 0.0069 |
| TTCGGGTTAA | 1.05 ± 0.017 |
| TTTGAATGTA | 1.011 ± 0.0078 |
| CGTTCCAGCC | 1.04 ± 0.041 |
| TGAAGCTGCC | 1.28 ± 0.042 |
| TTGTTCCAAT | 0.989 ± 0.012 |
| TTCAGGATA | 1.01 ± 0.033 |
| TTCAAGTTAT | 1.04 ± 0.045 |
| TGAGTGCAGC | 1.08 ± 0.12 |
| GGCACCACCT | 1.157 ± 0.0082 |
| TCATTTAGGT | 0.967 ± 0.013 |
| GCGTTAAGGG | 0.964 ± 0.053 |
| TTTTTATTTT | 1.01 ± 0.074 |
| CATTCTGTGT | 1.019 ± 0.0023 |
| TTCTATGGAA | 1.01 ± 0.016 |
| GGGGGAGGAT | 1.03 ± 0.057 |

| Sequence | switch fluorescence ratio |
| --- | --- |
| GCATTTGCTT | 1.01 ± 0.019 |
| CTAATACTTG | 0.9791 ± 0.0024 |
| TCTGTGGGGG | 1.01 ± 0.016 |
| GGCCTAGTTT | 0.9799 ± 0.0073 |
| TTCGGATGGG | 1 ± 0.034 |
| CACGCGTGGA | 1.003 ± 0.0055 |
| TGGTGACTAG | 0.967 ± 0.024 |
| TTGTAGAATG | 0.9821 ± 0.0066 |
| CATTATCACG | 1.075 ± 0.01 |
| TTTTTTATT | 0.963 ± 0.013 |
| TGAGTTTGGT | 0.97 ± 0.018 |
| TATGTGGAGG | 0.97262 ± 0.00028 |
| CAGGCATGGT | 0.9891 ± 0.002 |
| AACCGAACGA | 2.09 ± 0.072 |
| ACTAAGGGAG | 1.01 ± 0.005 |
| AAAACGTTTG | 1.025 ± 0.0023 |
| TATCTACAAT | 1.01 ± 0.02 |
| TCATGGGTTT | 0.997 ± 0.04 |
| GCCTTCAAGC | 1.04 ± 0.054 |
| TAGCACGGAT | 1.02 ± 0.038 |
| CTTCCGTTTT | 1.28 ± 0.042 |
| CTTTGGAAAT | 0.9997 ± 0.0023 |
| TTTATGAAGG | 1 ± 0.018 |

| Sequence | switch fluorescence ratio |
| --- | --- |
| GAGCTATCAC | 1.16 ± 0.035 |
| GGGGTCCTAA | 0.986 ± 0.011 |
| AAAGTACCCG | 1.07 ± 0.04 |
| TTCTGTTATC | 1.023 ± 0.0087 |
| TTCTGTTTTA | 1.05 ± 0.021 |
| ATAAACCTTA | 1.29 ± 0.28 |
| TGGGAGGAAA | 1.01 ± 0.039 |
| GAGGTTAGCT | 0.976 ± 0.046 |
| TGGGGGGAAA | 1.01 ± 0.054 |
| TTTATAAGGA | 0.997 ± 0.037 |
| ATAAAAATTT | 1 ± 0.024 |
| TTATCTGCCT | 1.06 ± 0.072 |
| AAGTCTCTCC | 1.06 ± 0.018 |
| CTTAGTGGCG | 0.9757 ± 0.0038 |
| CGGCCAACGC | 1.17 ± 0.028 |
| TTCGCGGCTA | 1.07 ± 0.016 |
| TGTGGCGCCA | 0.987 ± 0.04 |
| TTAGGTCCGG | 1.008 ± 0.0092 |
| CTCAATAGCA | 1.036 ± 0.0037 |
| GAAGGGTCTG | 0.969 ± 0.012 |
| TATATGGCGT | 0.989 ± 0.019 |
| TGACTTAACT | 1.09 ± 0.034 |
| CGCCTTTACA | 1.02 ± 0.029 |

| Sequence | switch fluorescence ratio |
| --- | --- |
| GAGTGTGATG | 0.97 ± 0.021 |
| CGGGTGCAAG | 1.03 ± 0.027 |
| ACGGCGCTTG | 1.051 ± 0.0053 |
| GGTATCAGGA | 0.978 ± 0.013 |
| CGCTTTCTTT | 1.03 ± 0.041 |
| CAACATGGAG | 0.9972 ± 0.0089 |
| GGTTTGGGCA | 1.02 ± 0.013 |
| AAAATAGAAC | 1.01 ± 0.041 |
| GGTATAGTTG | 0.993 ± 0.041 |
| TCGGGCGTAT | 1 ± 0.056 |
| TTAGTTTTAC | 1.004 ± 0.0029 |
| ATGTTAGTGG | 1.01 ± 0.066 |
| CTGTATATGG | 0.985 ± 0.042 |
| AATGGTGAAT | 0.996 ± 0.03 |
| AATACGAGTC | 1.09 ± 0.022 |
| TTTATTGA | 0.989 ± 0.013 |
| TAGCTCCGTA | 1.09 ± 0.036 |
| AGGGATACTG | 1.072 ± 0.0048 |
| TTTACGTAGG | 1 ± 0.024 |
| GGACATATTT | 1.03 ± 0.042 |
| TGATGTTATA | 0.968 ± 0.022 |
| TCTTATGTTA | 0.989 ± 0.021 |
| AGGGGGTAAT | 1.01 ± 0.049 |

| Sequence | switch fluorescence ratio |
| --- | --- |
| ATTCTCTGGT | 1.01 ± 0.076 |
| TAAGGACGGG | 1.02 ± 0.03 |
| AAAAAAATGC | 0.974 ± 0.037 |
| CGATACGATG | 0.995 ± 0.011 |
| ATAGGAGTCG | 1 ± 0.02 |
| GCATATCGGG | 1.02 ± 0.017 |
| TCGTTTTGCG | 0.9977 ± 0.0086 |
| TGAAATATTC | 0.993 ± 0.019 |
| TCATTTAGAG | 0.977 ± 0.019 |
| GGGGGGTTGA | 1.1 ± 0.2 |
| TGGGGTTGGT | 0.993 ± 0.018 |
| TCGATCATAA | 0.9901 ± 0.0015 |
| AAAGGTGTGT | 1.04 ± 0.073 |
| CGTGGTCAAC | 0.968 ± 0.047 |
| ACTGGGGATA | 0.988 ± 0.047 |
| CGCTCTAATA | 1.058 ± 0.01 |
| GGTCGCAGTT | 0.999 ± 0.022 |
| AGCAGTTCCG | 1.02 ± 0.044 |
| AGTTACGGTG | 1 ± 0.025 |
